Assay results published in patent CN116355095A.
Where two headings read alike, the source gives them in different places.

Columns and labels:
人TIGIT-hFc (human) [1] = molecular target: 人TIGIT-hFc (human) (UniProt Q495A1); assay: blocking ELISA: Bio-CD155 on coated TIGIT-hFc
[2] = molecular target: T1, CHO-K1-T1001细胞表达的人TIGIT (human) (UniProt Q495A1); assay: cell ELISA on fixed hTIGIT+ CHO-K1 cells
T1 sequence (looked up): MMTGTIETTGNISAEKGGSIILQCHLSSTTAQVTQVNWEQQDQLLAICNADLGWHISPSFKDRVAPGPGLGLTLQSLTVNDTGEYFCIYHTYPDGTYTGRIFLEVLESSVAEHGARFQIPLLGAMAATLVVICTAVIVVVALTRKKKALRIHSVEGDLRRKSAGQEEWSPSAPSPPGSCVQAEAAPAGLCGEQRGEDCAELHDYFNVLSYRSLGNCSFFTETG

[3] = molecular target: T1, CHO-K1-T1001细胞表达的人TIGIT (human); assay: cell ELISA on fixed hTIGIT+ CHO-K1 cells; remark: listed apart in the source
[4] = molecular target: T2, 人TIGIT重组蛋白 (hTIGIT; TIGIT-hFc 或 TIGIT-his) (human) (UniProt Q495A1); assay: ELISA on coated hTIGIT
T2 sequence (looked up): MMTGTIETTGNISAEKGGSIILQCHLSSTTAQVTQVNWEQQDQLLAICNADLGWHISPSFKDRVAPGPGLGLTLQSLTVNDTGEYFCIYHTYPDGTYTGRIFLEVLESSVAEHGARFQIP

[5] = molecular target: 恒河猴TIGIT-mFc (rhesus monkey; mouse); assay: ELISA on coated RhTIGIT-mFc
[6] = molecular target: T2, 人TIGIT重组蛋白 (hTIGIT; TIGIT-hFc 或 TIGIT-his) (human); assay: ELISA on coated hTIGIT; remark: listed apart in the source
人TIGIT-hFc (human) [7] = molecular target: 人TIGIT-hFc (human) (UniProt Q495A1); assay: blocking ELISA: Bio-CD155 on coated TIGIT-hFc; remark: listed apart in the source

恒河猴TIGIT-mFc (rhesus monkey; mouse), sequence (P01863 other isoform, or with tags, fused parts or gaps): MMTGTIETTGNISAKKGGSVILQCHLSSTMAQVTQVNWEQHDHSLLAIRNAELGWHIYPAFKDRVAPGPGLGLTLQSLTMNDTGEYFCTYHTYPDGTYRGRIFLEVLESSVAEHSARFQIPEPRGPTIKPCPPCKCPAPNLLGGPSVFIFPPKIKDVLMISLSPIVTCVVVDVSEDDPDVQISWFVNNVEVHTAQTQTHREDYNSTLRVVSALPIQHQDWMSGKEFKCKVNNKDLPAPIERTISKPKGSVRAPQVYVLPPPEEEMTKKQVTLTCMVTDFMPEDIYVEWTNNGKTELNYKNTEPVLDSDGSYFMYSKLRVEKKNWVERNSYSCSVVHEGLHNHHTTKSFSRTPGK

- IC50 (人TIGIT-hFc (human) [1]): 3.3 nM
- EC50 [2]: 0.138 nM
- EC50 [3]: 0.0268 nM
- EC50 [4]: 1.13 nM
- EC50 [5]: 0.243 nM
- EC50 [6]: 0.462 nM
- IC50 (人TIGIT-hFc (human) [7]): 1.19 nM
Substance: 阳性对照抗体Ref1 (罗氏RG6058) (antibody)
